This experiment has as its target CRM1 protein (chromosome region maintenance 1). As to the kind of experiment: co-immunoprecipitation (IP FOXO1, WB CRM1), band quantification. Conditions: chicken granulosa cells, with 740-Y-P; n = 3; parent: est. 1.9; read off a plot.

For “chicken forkhead box O1 (FOXO1) wild-type (from UniProt A0A8V0XGP1) S248A”, the response was determined as 2.

As to “chicken forkhead box O1 (FOXO1) wild-type (from UniProt A0A8V0XGP1) S311A”, the response was 2.
